Laboratory results as given in patent publication US20250049939A1 (TUBULIS, published 2025).

Experiments:
[1] = molecular target: T1, human CD64 (high affinity Fc receptor, FCGR1) on cells (human, UniProt P12314 16-374); test: flow cytometry, cell surface binding to Ba/F3-pMIY cells expressing CD64, specific MFI, mean ± s.d. of n=3
T1 construct: whole, on cells; also called hCD64; human FCGR1

[2] = molecular target: T2, murine FLT3 expressed on Ba/F3 cells (mouse, UniProt Q00342 28-1000); test: flow cytometry, cell surface binding to Ba/F3 pMIY cells expressing mFLT3wt, MFI ratio normalized to IgG1, mean ± s.d. of n=3
T2 construct: whole, on cells; also called mFLT3 wt; mFLT3
T2 sequence (looked up): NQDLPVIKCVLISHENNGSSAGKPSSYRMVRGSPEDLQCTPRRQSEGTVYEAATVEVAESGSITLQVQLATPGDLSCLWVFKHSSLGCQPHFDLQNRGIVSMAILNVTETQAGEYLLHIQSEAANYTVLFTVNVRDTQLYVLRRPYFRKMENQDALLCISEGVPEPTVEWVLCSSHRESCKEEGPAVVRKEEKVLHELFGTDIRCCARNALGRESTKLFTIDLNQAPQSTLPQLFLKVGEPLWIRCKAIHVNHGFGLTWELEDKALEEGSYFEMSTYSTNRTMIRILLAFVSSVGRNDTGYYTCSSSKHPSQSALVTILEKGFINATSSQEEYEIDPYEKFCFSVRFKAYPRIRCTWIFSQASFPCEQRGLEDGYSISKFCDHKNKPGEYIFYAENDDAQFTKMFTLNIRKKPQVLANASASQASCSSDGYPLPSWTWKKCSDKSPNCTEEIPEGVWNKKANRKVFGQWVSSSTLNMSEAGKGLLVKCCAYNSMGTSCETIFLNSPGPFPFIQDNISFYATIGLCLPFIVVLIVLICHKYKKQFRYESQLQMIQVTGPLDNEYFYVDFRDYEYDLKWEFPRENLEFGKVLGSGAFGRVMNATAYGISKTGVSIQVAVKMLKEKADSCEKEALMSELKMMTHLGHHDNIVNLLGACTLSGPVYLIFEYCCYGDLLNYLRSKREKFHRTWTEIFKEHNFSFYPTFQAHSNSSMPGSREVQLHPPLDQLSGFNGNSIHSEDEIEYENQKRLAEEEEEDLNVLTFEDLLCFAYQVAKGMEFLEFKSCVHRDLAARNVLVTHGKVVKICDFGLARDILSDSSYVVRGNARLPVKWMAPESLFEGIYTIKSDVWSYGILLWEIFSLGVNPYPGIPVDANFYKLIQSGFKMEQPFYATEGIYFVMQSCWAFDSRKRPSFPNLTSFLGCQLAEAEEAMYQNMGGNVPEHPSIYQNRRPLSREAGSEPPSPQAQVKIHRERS

[3] = molecular target: T3, human wildtype FLT3 expressed on Ba/F3 cells (human, UniProt P36888 27-993); test: flow cytometry, cell surface binding to Ba/F3 cells expressing human FLT3 (results of FIG. 14 summarized)
T3 construct: also called hFLT3 wt; Ba/F3-FLT3
T3 sequence: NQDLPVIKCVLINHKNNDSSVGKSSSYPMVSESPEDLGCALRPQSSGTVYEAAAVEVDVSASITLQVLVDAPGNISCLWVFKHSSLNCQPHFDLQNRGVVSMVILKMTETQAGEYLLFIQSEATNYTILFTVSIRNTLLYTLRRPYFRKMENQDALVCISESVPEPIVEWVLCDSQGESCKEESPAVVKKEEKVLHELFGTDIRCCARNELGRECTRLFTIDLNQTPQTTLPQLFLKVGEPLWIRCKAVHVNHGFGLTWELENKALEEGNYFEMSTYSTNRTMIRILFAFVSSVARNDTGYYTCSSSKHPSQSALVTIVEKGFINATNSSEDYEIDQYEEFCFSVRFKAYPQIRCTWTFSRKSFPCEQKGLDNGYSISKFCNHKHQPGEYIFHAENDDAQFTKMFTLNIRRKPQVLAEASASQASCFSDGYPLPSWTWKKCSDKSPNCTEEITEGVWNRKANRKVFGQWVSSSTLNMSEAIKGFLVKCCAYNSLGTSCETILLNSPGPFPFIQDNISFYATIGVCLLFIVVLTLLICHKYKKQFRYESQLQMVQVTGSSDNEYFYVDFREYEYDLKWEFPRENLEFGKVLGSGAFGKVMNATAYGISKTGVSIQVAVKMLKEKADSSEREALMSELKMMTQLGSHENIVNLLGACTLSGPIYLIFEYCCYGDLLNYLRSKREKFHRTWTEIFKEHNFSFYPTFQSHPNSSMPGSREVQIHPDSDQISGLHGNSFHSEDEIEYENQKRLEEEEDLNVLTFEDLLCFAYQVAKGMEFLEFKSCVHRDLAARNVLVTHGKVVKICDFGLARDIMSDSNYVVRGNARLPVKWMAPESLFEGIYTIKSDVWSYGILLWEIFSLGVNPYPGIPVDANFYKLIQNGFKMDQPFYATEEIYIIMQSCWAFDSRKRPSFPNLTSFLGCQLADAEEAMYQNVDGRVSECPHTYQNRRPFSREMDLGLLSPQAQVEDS

T1 sequence (P12314 16-374): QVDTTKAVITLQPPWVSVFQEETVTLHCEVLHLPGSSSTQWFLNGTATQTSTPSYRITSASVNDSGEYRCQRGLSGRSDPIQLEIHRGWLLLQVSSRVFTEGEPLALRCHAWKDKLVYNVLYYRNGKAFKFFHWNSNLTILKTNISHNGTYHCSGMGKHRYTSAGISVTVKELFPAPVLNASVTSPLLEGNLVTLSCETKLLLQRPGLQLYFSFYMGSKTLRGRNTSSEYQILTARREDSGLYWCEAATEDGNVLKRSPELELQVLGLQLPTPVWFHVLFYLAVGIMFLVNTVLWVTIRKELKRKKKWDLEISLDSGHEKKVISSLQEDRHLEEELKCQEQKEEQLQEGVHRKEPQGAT

B1: Humanized clone 3 of 20D9 (VH3 + VK1) (antibody, human IgG1, kappa)
heavy: not shown
light: DIQMTQSPSVLSASVGDRVTINCRASQNINKELNWYQQKLGEAPKLLIYNTNNLQSGVPSRFSGSGSGTDYTLTISSLQPEDVATYFCFQHKSWPLTFGSGTKLEIKRTVAAPSVFIFPPSDEQLKSGTASVVCLLNNFYPREAKVQWKVDNALQSGNSQESVTEQDSKDSTYSLSSTLTLSKADYEKHKVYACEVTHQGLSSPVTKSFNRGEC
notes: also called candidate #3; #3 mab
- binding result [1]: binds
- binding result [2]: no binding
- Binding to human FLT3 (MFI ratio to IgG1 control) [3]: 95.3
